The results in this text go back to patent CN105524171A (UNIV PLA 3RD MILITARY MEDICAL, dated 2016).

Assay [1] concerns the target T1, PSMA胞外区蛋白 (重组表达的前列腺特异性膜抗原膜外区) (UniProt Q04609 44-750).
T1 construct: extracellular domain; also called PSMA蛋白; PSMA抗原; not shown: His tag from vector pRAG2a (HisTrap purification, detected with His antibody)
As to the kind of experiment: indirect phage ELISA, PSMA extracellular domain coated at 5 μg/mL, HRP-anti-M13 detection. A general note: An ELISA detects its analyte on a solid surface through an enzyme-linked reagent.

Assay [2] has as its target T2, 前列腺特异性膜抗原 (PSMA) on LNCaP cells (UniProt Q04609 1-750, limits assumed).
T2 construct: whole, on cells; Cells were fixed with 4% paraformaldehyde before the assay; also called prostate specific membrane antigen
The assay can be described thus: cell ELISA (HRP-anti-M13, OD450) and immunofluorescence on fixed LNCaP cells (PSMA+) against MKN45 cells (PSMA-).

T1 sequence (Q04609 44-750): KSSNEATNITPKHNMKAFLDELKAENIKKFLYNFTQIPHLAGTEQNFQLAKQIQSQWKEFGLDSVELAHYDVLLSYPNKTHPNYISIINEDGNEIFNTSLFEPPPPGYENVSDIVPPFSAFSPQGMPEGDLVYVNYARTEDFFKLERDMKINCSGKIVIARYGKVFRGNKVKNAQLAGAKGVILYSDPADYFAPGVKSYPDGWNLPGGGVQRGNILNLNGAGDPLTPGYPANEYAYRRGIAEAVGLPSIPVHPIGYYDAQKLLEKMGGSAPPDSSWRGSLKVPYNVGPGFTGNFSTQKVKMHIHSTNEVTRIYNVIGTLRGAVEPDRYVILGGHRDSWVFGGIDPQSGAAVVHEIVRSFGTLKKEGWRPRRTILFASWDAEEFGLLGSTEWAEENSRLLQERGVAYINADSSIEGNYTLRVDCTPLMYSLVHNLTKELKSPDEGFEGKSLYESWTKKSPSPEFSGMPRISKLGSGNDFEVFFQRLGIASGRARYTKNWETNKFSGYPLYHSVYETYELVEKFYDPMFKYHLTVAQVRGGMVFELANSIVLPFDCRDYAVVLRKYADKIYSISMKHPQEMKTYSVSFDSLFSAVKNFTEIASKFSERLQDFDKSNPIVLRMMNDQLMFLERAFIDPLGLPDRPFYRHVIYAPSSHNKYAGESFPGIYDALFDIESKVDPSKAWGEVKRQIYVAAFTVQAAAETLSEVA
T2 sequence (Q04609 whole entry): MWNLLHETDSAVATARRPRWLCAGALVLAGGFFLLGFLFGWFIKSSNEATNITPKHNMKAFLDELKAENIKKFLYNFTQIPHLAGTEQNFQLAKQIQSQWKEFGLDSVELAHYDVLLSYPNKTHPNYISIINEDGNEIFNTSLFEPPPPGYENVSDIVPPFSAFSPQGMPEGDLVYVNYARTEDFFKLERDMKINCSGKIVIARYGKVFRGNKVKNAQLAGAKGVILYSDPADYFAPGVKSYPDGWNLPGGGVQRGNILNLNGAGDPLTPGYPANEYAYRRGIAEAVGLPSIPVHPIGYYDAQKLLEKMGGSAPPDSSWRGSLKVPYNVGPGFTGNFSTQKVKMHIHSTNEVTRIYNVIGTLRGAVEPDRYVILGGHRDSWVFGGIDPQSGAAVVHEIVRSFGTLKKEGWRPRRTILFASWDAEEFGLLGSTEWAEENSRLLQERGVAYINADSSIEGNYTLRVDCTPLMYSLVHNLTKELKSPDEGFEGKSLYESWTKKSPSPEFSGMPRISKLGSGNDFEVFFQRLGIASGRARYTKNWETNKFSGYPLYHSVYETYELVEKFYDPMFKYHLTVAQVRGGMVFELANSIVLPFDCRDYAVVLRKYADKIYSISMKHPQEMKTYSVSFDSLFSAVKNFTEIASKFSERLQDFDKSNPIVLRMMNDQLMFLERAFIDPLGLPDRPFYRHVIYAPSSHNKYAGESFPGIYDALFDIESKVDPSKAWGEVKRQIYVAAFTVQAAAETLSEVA

B1: 抗前列腺特异性膜抗原单域重链抗体噬菌体阳性克隆 (VHH, not shown: large carriers)
VHH: QLQLVESGGGLVQAGGSLRLSCVVSGRPFSRYTMGWFRQAPGKERELVATIWRRGNTYYANYADAVTGRFTISRDNAKNTAYLQMNSLELEDTAIYYCAAGRTSWGQNPSEYGYWGQGTQVTVSS
notes: also called 针对前列腺特异性膜抗原的单域重链抗体阳性克隆; 展示本发明所述纳米抗体的噬菌体克隆
Take B1: the binding result in assay [1] and in assay [2] was “binds” in each case.
